Target: human CD8 on human T cells (human) (UniProt P01732)
Assay: cell-based or functional assay

human CD8 on human T cells (human), sequence (P01732 22-235): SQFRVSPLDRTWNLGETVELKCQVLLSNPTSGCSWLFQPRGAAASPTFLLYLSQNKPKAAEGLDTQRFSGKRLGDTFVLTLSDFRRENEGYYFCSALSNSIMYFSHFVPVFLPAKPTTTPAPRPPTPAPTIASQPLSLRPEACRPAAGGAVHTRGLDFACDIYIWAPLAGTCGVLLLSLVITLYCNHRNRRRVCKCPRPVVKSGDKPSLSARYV

Substance	tumor cell survival, SK-MEL-5 with MART-1 T cells
51.1 (antibody)	2 fold
SK1 (antibody)	2 fold
